The record followed here is patent US20220363763A1 (ABL BIO, published 2022).

One may read the kon as the rate constant with which the complex forms. As a reminder, the EC50 is the concentration at which the effect is half-maximal. A lower EC50 goes with an effect from little substance. Usually Kd stands for the equilibrium constant for the complex coming apart. As usually defined, the koff is the first-order rate constant of dissociation. As a reminder, the IC50 is the midpoint of a concentration-inhibition curve.

The target in test [1] is T1, recombinant his-tag human LAG3-ECD protein (human, UniProt P18627 23-450).
T1 construct: extracellular domain; not shown: his tag
T1 sequence (looked up): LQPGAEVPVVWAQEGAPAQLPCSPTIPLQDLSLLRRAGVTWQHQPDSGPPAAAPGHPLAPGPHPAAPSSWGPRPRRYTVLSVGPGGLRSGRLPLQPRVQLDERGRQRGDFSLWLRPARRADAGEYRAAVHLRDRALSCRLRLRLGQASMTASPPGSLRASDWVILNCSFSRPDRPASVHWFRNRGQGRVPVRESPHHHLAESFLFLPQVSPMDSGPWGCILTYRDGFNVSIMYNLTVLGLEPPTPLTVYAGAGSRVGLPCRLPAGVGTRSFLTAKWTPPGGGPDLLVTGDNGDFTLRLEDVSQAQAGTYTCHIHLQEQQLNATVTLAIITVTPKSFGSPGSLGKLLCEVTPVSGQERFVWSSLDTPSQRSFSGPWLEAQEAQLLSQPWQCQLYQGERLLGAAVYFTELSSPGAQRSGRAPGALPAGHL
Briefly: Biacore, antibody captured, His-tag human LAG3-ECD injected (procedure of Example 2.16(B)); column ka (1/Ms). Here is the method: (§1) The binding of B3807 to recombinant His-tag human LAG3-ECD protein was examined by Biacore T200 using a capture method. B3807 was captured using protein A which was immobilized on CM5 sensor chip. Serial concentrations of his-tag human LAG3-ECD protein (0-12 nM) were injected over capture antibodies at the flow rate of 30 μl/min. The dissociation phase was 900 s or 550 s.
(§2) B3807 was used in the following examples for further testing and preparing bispecific antibodies.
(Surface plasmon resonance follows binding to a sensor surface in real time, without labels.)

Test [2] has as its target T2, human LAG3 on cells (human, UniProt P18627 23-525).
T2 construct: whole, on cells; also called Jurkat-LAG3
T2 sequence (looked up): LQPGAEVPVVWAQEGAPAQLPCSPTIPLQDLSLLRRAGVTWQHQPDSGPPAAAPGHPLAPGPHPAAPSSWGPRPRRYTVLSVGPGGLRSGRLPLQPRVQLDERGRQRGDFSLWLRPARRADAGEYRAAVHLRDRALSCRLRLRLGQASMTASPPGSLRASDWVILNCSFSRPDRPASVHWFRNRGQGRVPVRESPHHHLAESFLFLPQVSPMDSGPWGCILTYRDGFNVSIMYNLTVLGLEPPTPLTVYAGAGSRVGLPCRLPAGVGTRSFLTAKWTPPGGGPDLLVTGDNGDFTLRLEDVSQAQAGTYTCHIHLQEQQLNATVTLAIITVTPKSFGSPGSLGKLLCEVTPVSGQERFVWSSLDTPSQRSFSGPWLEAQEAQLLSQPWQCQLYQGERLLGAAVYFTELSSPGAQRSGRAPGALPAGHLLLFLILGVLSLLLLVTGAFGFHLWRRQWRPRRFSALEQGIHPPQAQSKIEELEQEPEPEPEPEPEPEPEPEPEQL
Briefly: flow cytometry (MFI) on activated human PBMC (CD4+ cells), lower panel. Here is the method:
(§3) To further confirm that B3807 could bind to cell-derived human LAG3, both inducible human LAG3 expressed Jurkat cells and activated PBMCs were used to test the binding capability of B3807. In brief, Jurkat cells were resuspended in FACS buffer. B3807, 25F7 and isotype control were 3-fold serially diluted in FACS buffer with a dose ranging from 20 nM to 9 pM. The serially diluted antibodies were added to the cell suspension and incubated for 30 minutes on ice. Then after removal of unbound antibodies, cells were stained with anti-human IgG conjugated with Alexa Fluor 633 (Thermo, A21091). Fluorescence measurement was acquired on FACSCelesta flow cytometer and analyzed in Flowjo to determine the mean fluorescence intensities (MFI). To test the antibodies' ability of binding to native human LAG3, PBMCs from health donor were stimulated with anti-CD3 (BD, 555336) and anti-CD28 (BD, 555725) both at a concentration of 1 μg/ml. Following 3 days' stimulation, cells were harvested and incubated with anti-LAG3 antibodies for 30 mins on ice. The cells were stained with anti-human CD4 and anti-human IgG. Analysis of antibodies binding to CD4+ cells were carried out on FACSCelesta flow cytometry.
(In general: In flow cytometry, cells or beads pass a laser one at a time.)

For test [3], the target named is T1, recombinant his-tag human LAG3-ECD …. As to the kind of experiment: Biacore T200, B3807 captured on protein A, His-tag human LAG3-ECD injected; column 'KD', unit inferred. Here is the method: as §1
For test [4] the target is unchanged. As to the kind of experiment: Biacore, antibody captured, His-tag human LAG3-ECD injected (procedure of Example 2.16(B)); column kd(1/s). Here is the method: as §1, §2
Test [5] deals with T3, human LAG3 (construct not stated) (human, UniProt P18627 23-450, limits assumed).
T3 construct: also called human LAG3 protein; antigen
T3 sequence (looked up): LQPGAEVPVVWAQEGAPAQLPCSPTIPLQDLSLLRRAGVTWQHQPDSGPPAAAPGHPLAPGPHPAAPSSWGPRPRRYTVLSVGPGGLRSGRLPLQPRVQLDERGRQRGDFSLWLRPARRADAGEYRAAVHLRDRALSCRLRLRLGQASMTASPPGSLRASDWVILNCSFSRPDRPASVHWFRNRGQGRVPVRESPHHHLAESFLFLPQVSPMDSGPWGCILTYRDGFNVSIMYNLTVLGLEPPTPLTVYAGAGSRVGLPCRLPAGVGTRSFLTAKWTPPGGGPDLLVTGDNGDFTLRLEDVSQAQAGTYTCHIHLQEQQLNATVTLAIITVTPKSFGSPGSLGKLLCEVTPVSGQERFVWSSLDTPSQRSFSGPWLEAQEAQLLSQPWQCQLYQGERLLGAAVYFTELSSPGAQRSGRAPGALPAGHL
As to the kind of experiment: TR-FRET LAG3 / MHC II binding assay (Cisbio), competitor MHC II. Here is the method: To measure the ability of B3807 to block the interaction between human LAG3 and MHCII, the LAG3 and MHC II binding assay (Cisbio, 64ICP03PEG) was performed utilizing homogeneous TR-FRET technology, following the protocol provided by the kit manufacturer. B3807 was 3-fold diluted ranging from 100 nM to 5 pM (10 points). Fluorescence data was acquired on a PerkinElmer Envision plate reader and a four-parameter dose-response curve was fitted to obtain IC50 of each antibody.

The target in test [6] is T2, human LAG3 on cells. As to the kind of experiment: flow cytometry (MFI) on human LAG3-expressing Jurkat cells, upper panel. Here is the method: as §3
Test [7] has as its target T1, recombinant his-tag human LAG3-ECD …. As to the kind of experiment: Biacore, antibody captured, His-tag human LAG3-ECD injected (procedure of Example 2.16(B)). Here is the method: as §1, §2
Test [8] concerns the target T4, Bio-LAG3 (human, UniProt P18627 23-450, limits assumed, biotinylated (sites not given)).
T4 construct: also called human LAG3 protein
T4 sequence (looked up): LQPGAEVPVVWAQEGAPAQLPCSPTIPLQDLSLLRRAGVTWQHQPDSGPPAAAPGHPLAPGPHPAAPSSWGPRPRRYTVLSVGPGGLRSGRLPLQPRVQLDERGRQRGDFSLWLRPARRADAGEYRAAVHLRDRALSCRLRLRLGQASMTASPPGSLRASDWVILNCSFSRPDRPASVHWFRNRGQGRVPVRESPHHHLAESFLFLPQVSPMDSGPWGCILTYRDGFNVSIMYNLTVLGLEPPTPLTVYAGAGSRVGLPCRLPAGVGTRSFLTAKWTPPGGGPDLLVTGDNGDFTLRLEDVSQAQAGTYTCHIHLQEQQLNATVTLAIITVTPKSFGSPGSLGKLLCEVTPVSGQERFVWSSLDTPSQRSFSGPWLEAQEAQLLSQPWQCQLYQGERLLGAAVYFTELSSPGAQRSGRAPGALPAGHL
Briefly: ELISA, Bio-LAG3 held on streptavidin-coated plate. Here is the method:
The streptavidin was coated to an ELISA plate at 2 μg/ml with 100 μl/well. 100 μl of Bio-LAG3 at 1.0 μg/ml was subsequently incubated with streptavidin at RT for 1 hr. B3807, along with a positive control 25F7 and a negative control IgG, were serially diluted with ELISA diluent buffer. To assess binding, the antibodies at various concentrations were added to LAG3 protein-coated plate for 1.5 hr RT. The resulting plates were washed and then labeled with anti-human IgG(Fab)-HRP antibody.
(In general: ELISA stands for enzyme-linked immunosorbent assay.)

Test [9] has as its target T5, biotin-labeled LAG3-ECD (Homo sapiens (Human), UniProt P18627 23-450, biotin label, site not stated).
T5 construct: also called soluble LAG-3; LAG3 protein
T5 sequence: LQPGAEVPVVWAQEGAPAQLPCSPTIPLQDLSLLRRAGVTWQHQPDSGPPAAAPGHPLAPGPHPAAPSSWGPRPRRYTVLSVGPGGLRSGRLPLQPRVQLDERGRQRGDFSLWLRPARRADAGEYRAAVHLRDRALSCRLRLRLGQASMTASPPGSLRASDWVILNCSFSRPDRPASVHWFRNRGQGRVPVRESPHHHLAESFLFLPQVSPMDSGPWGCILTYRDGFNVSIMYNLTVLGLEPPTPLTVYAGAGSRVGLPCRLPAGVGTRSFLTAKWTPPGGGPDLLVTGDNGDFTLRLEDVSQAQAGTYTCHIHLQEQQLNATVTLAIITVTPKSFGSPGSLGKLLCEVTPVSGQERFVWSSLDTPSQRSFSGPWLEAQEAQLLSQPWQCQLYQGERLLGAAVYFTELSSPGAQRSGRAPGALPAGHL
As to the kind of experiment: ELISA on coated recombinant FGL-1; blocking of the binding of biotin-labeled LAG3-ECD to FGL-1. Here is the method:
Recombinant FGL-1 were coated on a 96 well plated at a concentration of 1 μg/ml and incubated overnight at 4° C. Serially diluted anti-LAG3 antibody B3807 (starting from 10 μg/ml and 1:3 dilution) and biotin-labeled LAG3-ECD (2 μg/ml) were incubated with FGL-1 coated wells at room temperature for 2 hours. After extensive washing with the wash buffer, streptavidin-HRP was added.

B1: 147H 3807 (antibody, V domains shown)
VH: EVQLVQSGAEVKKPGASVKVSCKASGYTFTNYWLGWIKQAPGQGLEWIGDIYPGGDYIVYNEKFKGKATLTADTSISTAYMELSRLRSDDTAVYYCARPNLPKDHWGQGTTVTVSS
VL: DIVMTQSPLSLPVTPGEPASISCRSSKSLLHSQGITYLYWYLQKPGQSPQLLIYQVSNLASGVPDRFSGSGSGTDFTLKISRVEAEDVGVYYCAQYLELPWTFGGGTKVEIK
notes: also called B3807
Take B1: the kon in test [1] is 5.66e+06 M⁻¹ s⁻¹. Further, the results for the EC50 in [2], in test [6] and in test [8] were 0.32 nM, 0.06 nM and 0.06 nM, respectively. For the same molecule, the Kd in [3] amounted to 0.464 nM; in test [7], 0.915 nM. Further, the koff in [4] is 0.00517 s⁻¹. This molecule also displayed an IC50 in [5] of 0.41 nM. For the same molecule, in [9], the “IC50 (read off the curve)” value was approximately 0.2 mg/L.
